{"source": "patent US20250147051A1", "about": "“METHOD FOR DETECTING A TAU PROTEIN IN A SALIVA SAMPLE” (GTINVENT LIMITED, priority 2022, published 2025)", "molecules": {"B1": {"name": "CA4: anti-tau clone, SEQ ID NO: 368 (protein)", "chain": "QVQLQESGPSLVKPSQTLSLTCTVSGFSLTSYSVYWVRQAPGQALEWISIMYASGRVDYNPALKSRLSITRDTSKSQFSLSLSSVTTEDTAVYYCTRGIENWGPGLLVTVSSEGKSSGASGESKVDDDIQVTQSPSSLSASLTERVSITCRTSQSVNNYLSWYQQKPGQAPKLLIYYATRLYTDVPSRFSGSGSGTDYTLTITSLEADDTATYYCLQYDSTPLAFGGGTNVEIK", "modifications": "CA4 amino acid sequence"}}, "test_system": "plasma tau", "test": "3-step Simoa assays of human plasma (AD/MCI vs healthy control / CU)", "settings": "label = capture antibody; CA4 with BT2 detector; BT2 or HT7 with S1D12 or S1G2 detectors", "procedure": "Human plasma samples were sourced from the commercial supplier Logical Biological Ltd. Healthy control (HC, n=12) and samples from individuals with a diagnosis of AD or mild cognitive impairment (AD/MCI, n=42) were aliquoted into low bind microfuge tubes and stored at −80° C.\nThe Simoa® experiments used for plasma screening utilised a 3-step protocol optimised for use with plasma samples. A standard curve (540 pg/ml−0.7 pg/ml) was created by spiking recombinant hTau40 into Tau 2.0 diluent and triple diluting. Plasma samples were diluted 1:100 and added in duplicate to the Simoa® plate followed by the addition of respective capture beads. Different antibody pairings used for plasma screening is explained in Table 28. In general, the capture antibody coated beads are mixed with diluted plasma samples, added to the plates and incubated for 30 min at 30° C. with shaking. Following the incubation, the plates were washed using the Simoa® plate washer before the addition of 0.2 μg/ml biotinylated detector antibody which was left to incubate as before for 10 min. The plates were then washed again before the addition of SBG and a final 10 min incubation. After the final incubation and wash steps the plates were transferred to the Simoa® reader and plasma tau concentrations generated against a 4-parameter fit curve. […]"}
{"molecule": "B1", "values": [{"measurement": "detection of tau in human plasma", "result": "high levels of Core/Proline tau is detected in cognitively unimpaired (CU) samples only"}]}
